Data reported in US7960140B2, “Avidin mutants” (Orion Diagnostica Oy, priority 2003, dated 2011).

Experiments:
[1] = SDS-PAGE-based thermal stability assay; assay type: physicochemical; details: Table 5; for SDS-PAGE stability assay Tr (+)biotin: with biotin
Experimental: Thermal stability of the mutants was studied by using a SDS-PAGE-based method essentially as described in detail by Bayer et al. (Bayer, E. A. et al. Electrophoresis 17, 1319-1324 (1996)). Briefly, the protein sample in the absence or presence of biotin was diluted to a final concentration of 0.2 mg/mil in 50 mM Na-carbonate buffer, and the proteins were acetylated by adding acetyl NHS ester. Equal amount of SDS-PAGE sample buffer was added to each sample and the protein was incubated at different temperatures (between 25-100° C.) for 20 minutes. After that the samples were subjected to SDS-PAGE analysis and the gel was finally stained with Coomassie brilliant blue. Dissociation of the proteins into their subunits was observed from the gels and the transition temperatures, wherein half of the protein was (pseudo-)tetrameric and half monomeric were determined.

[2] = Dissociation assay with fluorescent biotin conjugate (ArcDia BF560); assay type: binding; details: for Release 1 h / t1/4 (time point of 25% release) / kdiss: 23 ± 1° C.; for Release 1 h: 100-fold molar excess of free biotin; for t1/4 (time point of 25% release): determined directly from the measured data; for kdiss: one-phase dissociation model
Experimental: The biotin-binding properties of produced mutagenised dcAvds were analysed by method based on the quenching of biotin-coupled fluorescent probe ArcDia BF560 (ArcDia Ltd., Turku, Finland) due to binding to avidin (FIG. 4). PerkinElmer LS55 luminometer was used for measurements. […] The spectra of 50 nM biotin-Bf560 solution in 50 mM Na-phosphate containing 650 mM NaCl was measured (red). Chicken avidin (Belovo S. A., Bastogne, Belgium) was added to final subunit concentration of 83 nM and green spectra was obtained.
Briefly, 50 nM free biotin-Bf560 solution in 50 mM Na-phosphate containing 650 mM NaCl was measured using excitation at 560 nm (2.5 nm slit) and emission was collected at 578 nm (5 nm slit). Continuous stirring (setting low) was used throughout the analysis. After 100 sec measurement, the protein under study was added to final biotin-binding subunit concentration 50 nM and the measurement was continued for 500 sec. […]
A one-phase dissociation model was used to analyse the data, as described elsewhere (Hytönen et al., (2004) Biochem J, in press). The dissociation rate constant (kdiss) was determined by fitting the equation −kdisst=ln(B/Bo) to the data. Bo is the measured maximum binding (100%) determined as the difference between the fluorescence of the free dye and the fluorescence of the protein-dye complex, and B is the amount of complex measured as a function of time. The first 500 seconds were omitted from the data to abolish the effect of the fast initial phase characteristic of avidin-BF560-biotin interaction (FIG. 9). The fraction of fluorescent biotin released after one-hour was determined, as well as the times of half-maximal (t½) and quarter-maximal (t¼) release. For dual chain avidins with modified binding sites, it was hypothesized that 50% of the binding sites would behave like those of wt avidin (cpAvd5S4 binding site of dcAvd was not modified). The dissociation data measured for wt avidin divided by two was subtracted from the data measured for the modified dual chain avidins and the dissociation curve was fitted to the difference as above.

[3] = Heat-induced unfolding by DSC; assay type: physicochemical; details: for ΔTm: change in Tm upon addition of a three-fold molar excess of biotin; for DSC Tm (+)biotin: three-fold molar excess of biotin; for DSC Tm (−)biotin: without biotin

Substance | SDS-PAGE stability assay Tr (−)biotin ([1]; transition midpoint of oligomeric disassembly, without biotin) [°C] | SDS-PAGE stability assay Tr (+)biotin [1] [°C] | Release 1 h [2] [%] | t1/4 (time point of 25% release) [2] [s] | kdiss [2] [s⁻¹] | ΔTm [3] [°C] | DSC Tm (+)biotin [3] [°C] | DSC Tm (−)biotin [3] [°C] | dissociation of biotin-coupled fluorescent probe with excess unlabeled biotin ([2]; 5 μM free biotin, 3600 sec, 23±0.5° C.)
Avd(S16A): avidin mutant S16A in all four subunits | 55 | 80 | 74.5 | 621 | 0.00036 | 30.3 | 114.6 ± 0.2 | 84.3 ± 0.3 | –
Avd(Y33H): avidin with four identically mutagenised (Y33H) subunits (Marttila et al. 2003) [reference compound] | – | 75 | 99.2 | 149 | 0.0011 | 33.3 | 106.3 | 73.0 | rapid and complete dissociation
